The values below come from patent US20240287161A1 (NATIONAL UNIVERSITY CORPORATION TOTTORI UNIVERSITY, published 2024).

In the assay the target is T1, HCoV-OC43 trimeric S protein (amino acids 12-1299) with T4 foldon, histidine tag and strep-tag (HCoV-OC43, UniProt P36334 12-1291).
T1 chain: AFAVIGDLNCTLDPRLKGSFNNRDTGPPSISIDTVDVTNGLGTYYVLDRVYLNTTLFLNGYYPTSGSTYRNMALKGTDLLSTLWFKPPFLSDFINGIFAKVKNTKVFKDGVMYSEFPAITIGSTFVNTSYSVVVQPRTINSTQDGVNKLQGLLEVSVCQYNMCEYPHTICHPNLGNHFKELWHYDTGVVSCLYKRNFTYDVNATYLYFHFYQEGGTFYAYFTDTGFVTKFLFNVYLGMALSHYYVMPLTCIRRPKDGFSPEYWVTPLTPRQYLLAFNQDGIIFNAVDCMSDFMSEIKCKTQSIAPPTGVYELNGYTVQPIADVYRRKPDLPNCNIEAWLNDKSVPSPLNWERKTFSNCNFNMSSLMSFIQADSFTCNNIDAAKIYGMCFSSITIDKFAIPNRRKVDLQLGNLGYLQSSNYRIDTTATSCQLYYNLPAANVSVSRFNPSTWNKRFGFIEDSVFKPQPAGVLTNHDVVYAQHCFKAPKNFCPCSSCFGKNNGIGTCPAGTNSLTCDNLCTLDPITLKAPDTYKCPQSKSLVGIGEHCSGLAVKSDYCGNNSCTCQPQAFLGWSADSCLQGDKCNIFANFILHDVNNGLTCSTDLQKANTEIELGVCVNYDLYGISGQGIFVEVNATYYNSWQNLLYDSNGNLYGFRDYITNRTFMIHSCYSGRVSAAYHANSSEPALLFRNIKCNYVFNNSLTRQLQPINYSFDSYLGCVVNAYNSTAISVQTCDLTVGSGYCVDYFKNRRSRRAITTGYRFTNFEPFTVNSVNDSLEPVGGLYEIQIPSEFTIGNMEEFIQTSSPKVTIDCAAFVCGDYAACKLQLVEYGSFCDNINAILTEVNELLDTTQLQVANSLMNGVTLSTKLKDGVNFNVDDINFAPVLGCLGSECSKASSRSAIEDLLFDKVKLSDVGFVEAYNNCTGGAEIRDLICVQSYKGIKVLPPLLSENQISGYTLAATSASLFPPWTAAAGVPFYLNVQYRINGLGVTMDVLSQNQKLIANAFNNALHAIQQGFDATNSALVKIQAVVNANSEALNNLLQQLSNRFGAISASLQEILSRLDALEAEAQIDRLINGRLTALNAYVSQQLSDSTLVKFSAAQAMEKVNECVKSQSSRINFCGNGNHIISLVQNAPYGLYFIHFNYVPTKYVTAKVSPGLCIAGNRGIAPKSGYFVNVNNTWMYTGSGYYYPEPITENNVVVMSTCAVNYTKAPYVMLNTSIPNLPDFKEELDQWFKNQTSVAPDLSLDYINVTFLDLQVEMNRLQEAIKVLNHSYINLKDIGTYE
The assay can be described thus: ELISA on coated S-trimeric antigen, anti-human IgG-HRP [Human IgG1, NT-193].

B1: NT-193 (recombinant human IgG1/kappa antibody) (antibody, V domains shown)
VH: EVQLQQWGAGLLKPSETLSLTCAVYGGSFSGYYWSWIRQPPGKGLEWIGEINHSGSTNYNPSLKSRVTISVDTSKNQFSLKLSSVTAADTAVYYCARGWDLDYYYGMDVWGQGTTVTVSS
VL: DIRMTQSPSAMSASVGDRVTVTCRASQGIGNYLAWFQLKPGKVPKRLIYAASSLQSGVPARFSGGGSGTEFTLTISSLQPEDFATYYCLQHGFLPWTFGQGTKLEIK
Consider B1, for which the binding result is listed as “no binding (tested: 1000 ng/ml)”.
